Measurements taken from patent publication US20230279105A1 (SINGLE CELL TECHNOLOGY, published 2023).
Where a chain is given by its changes, count along the chain named.

B1: SCT-Fa134 (antibody, V domains shown)
VH: QVQLQQPGAELVRPGSSVKLSCKASGYNFTNYWIDWVKQRPGQGLAWIGDIYPSDNKTHYNQNFKGKATLTVDKSSNTAYMQLSSLTSEDSAVYYCAASMDYWGQGTSVTVSS
VL: DIVMTQSPSSLTVTAGEKVTMSCKSSQSLLNSKNQKNFLTWYQQKPGQPPKLLIYWASTRESGVPDRFTGSASGTDFTLTISSVQAEDLAVYYCQNDYSYPYTFGGGTKLEIK
notes: murine IgG
B2: SCT-Fa135 (antibody, V domains shown)
VH: B1 VH with N31S, A46E, N56S, S85N, A98T
VL: B1 VL with S99D
notes: murine IgG
B3: SCT-Fa118 (antibody, V domains shown)
VH: QVQLQQPGAELVKPGASVKLSCKASGYTFISYWMHWVKQRPGRGLEWIGRIDPNSGDTKYNEKFKSKATLTVDKPSSTAYMQLSSLISEDSAVYYCARWGWDAFAYWGQGTLVTVSA
VL: DAVMTQTPLSLPVSLGDQASISCRSSQSLENSDGNTYLNWYFQKTGQSPQLLIYRVSNRFSGVLDRFSGSGSGTDFTLKISRVEAEDLGVYFCLQVTHVPPTFGAGTKLELK
notes: murine IgG
B4: SCT-Fa136 (antibody, V domains shown)
VH: QVQLQQPGAELVRPGTSVKLSCKASGYTFINYWMHWVKQRPGQGLEWIGVIDPSHTSTSYNQKFKGKATLTVDTSSTTTSMQLTSLTSEDSAVYYCARNDYDGGYFDYWGQGTTLTVSS
VL: DVVMTQIPLSLPVSLGDQASISCRSSQSLVHSNGNTYLHWYLQKPGQSPKLLIYTVSNRFSGVPDRFSGSGSGTDFTLKISRLEAEDLGVYFCSQTTHVPWTFGGGTKLEIK
notes: murine IgG
B5: SCT-Fa113 (antibody, V domains shown)
VH: QVQLQQPGAEFVKPGASVKLSCEASGNTFTSYWIQWVKQRPGQGLEWIGEIDPSDSYIDYNQKFKDKATLTVDTSSSTAYMHLSSLTSEDSAVYYCAREGAYSSPFAYWGQGTLVTVSA
VL: DILMTQSPSSMSVSLGDTISIICHASQDIRSNIGWLQQKPGKSFKGLIYHGSNLEDGVPSRFSGSGSGADYSLTISSLESEDFADYYCVQYIQFPRTFGGGTKVEIK
notes: murine IgG
B6: SCT-Fa127 (antibody, V domains shown)
VH: QVQLQQPGAELVMPGASVKLSCKASGYTFTTYWMHWVKQRPGQGLEWIGEIDPSDGYSNYNQNFKGKATLTVDKSSSTAYLQLSSLTSEDSAVYYCARNYGSNYVGYFDYWGQGTTLTVSS
VL: DIQMTQTTSSLSASLGDRVTISCRSSQDISNYLNWYQQKPDGTVKLLIYYTSRLHSGVPSSFSGSGSGTDYSLTISNLEQEDIATYFCQQANALPWTFGGGTKLEIK
notes: murine IgG
B7: SCT-Fa133 (antibody, V domains shown)
VH: B6 VH with P14S, K38R, G56S, Y60N, G66A, L81M, S84G
VL: B6 VL with T7S, S25A, S30T, Y50H, S56A, S61R, E79D, A91G
notes: murine IgG
B8: SCT-Fa123 (antibody, V domains shown)
VH: B6 VH with T30N, G56S, S58T, K65N
VL: B6 VL with S25A, H55P, N92K
notes: murine IgG
B9: SCT-Fa190 (antibody, V domains shown)
VH: B6 VH with Q5R, T30N, G56S, S58T
VL: B6 VL with S25A, H55P, N92K
notes: murine IgG
B10: SCT-Fa130 (antibody, V domains shown)
VH: B6 VH with K19R, K38R, G56S, S58T, Y110H
VL: B6 VL with S25A
notes: murine IgG
B11: SCT-Fa125 (antibody, V domains shown)
VH: B6 VH with T31S, G56N, S58T, N63K, K74G, L81M
VL: B6 VL with S25A, D28G, L54F, S61R, A91G, A93S
notes: murine IgG
B12: SCT-Fa132 (antibody, V domains shown)
VH: B6 VH with G15R, T31S, S58T, Q62H, N63K, L81M
VL: B6 VL with S25A, P40R, L54F, S61R, A91G, A93T
notes: murine IgG
B13: SCT-Fa124 (antibody, V domains shown)
VH: B6 VH with T30S, G56S, S58T, L81M, Y110H, Q113R
VL: B6 VL with S25A, E79A, A91G
notes: murine IgG
B14: SCT-Fa129 (antibody, V domains shown)
VH: B6 VH with G56S, S58T, N63K, L81M
VL: B6 VL with M4L, S22N, S25A, H55L, N77S, A91G, N92K
notes: murine IgG
B15: SCT-Fa122 (antibody, V domains shown)
VH: B6 VH with K23E, Y32F, M34I, G56S, S58T
VL: B6 VL with S25A, T85I
notes: murine IgG
B16: SCT-Fa126 (antibody, V domains shown)
VH: B6 VH with T31S, G56S, N63K, L81M, S84I
VL: B6 VL with S25A, H55L, S61R, A91G, A93T, K103N
notes: murine IgG
B17: SCT-Fa128 (antibody, V domains shown)
VH: B6 VH with G56S, N63K, L81M
VL: B6 VL with M4L, S22N, S25A, H55L, N77S, A91G, N92K
notes: murine IgG
B18: SCT-Fa131 (antibody, V domains shown)
VH: B6 VH with K19R, A24T, T30S, G56S, S58T, L81M, Q82K
VL: B6 VL with T8A, S25A, S30N, A91G, G99S
notes: murine IgG
B19: SCT-Fa111 (antibody, V domains shown)
VH: QVQLKQSGPGLVQPSQSLSITCTVSGFSLISYGVHWVRQSPGKGLEWLGIIWSGGNTDYNAAFISRLSISKDNSKSQVFFKLNSLQADDTAIYYCARTANALDYWGQGTSVTVSS
VL: DVLMTQTPLSLPVSLGDQASISCRSSQTIVHSNGNTYLEWYLQKPGQSPKLLIYKVSNRFSGVPDRFSGSGSGTDFTLKISRVEAEDLGVYYCFQGSHVPWTFGGGTKLEIK
notes: murine IgG
B20: SCT-Fa116 (antibody, V domains shown)
VH: QVQLQQPGAELVKPGASVKLSCKASGYSFISSWMEWVKQRPGQGLEWIGRIHPSDSDTNYNQKFKAKATLTVDKSSSTAYMQLSSLTSEDSAVYYCAIIHRGFYFAMDYWGQGTSVTVSS
VL: B19 VL with T28S
notes: murine IgG
B21: SCT-Fa120 (antibody, V domains shown)
VH: QVQLQQPGAELVKPGASVKVSCKASGYSFISYWMYWVKQRPGQGLEWIGRIHPSDSDTNYNQKYKGKATLTVDRSSSTAYMQLSSLTSEDSAVYYCTISHYSGSSPETYWGQGTTLTVSS
VL: B19 VL with T28S, W101Y
notes: murine IgG
B22: SCT-Fa121 (antibody, V domains shown)
VH: QVQLQQPGAELVKPGASVKVSCKASGYTFISHWMYWVRQRPGQGLEWIGRIHPSDSDTDYSQEFKGKATLTVDKSSSTAHMQLSSLTSEDSAVYYCAIWSYYYGSRLDYWGQGTTLTVSS
VL: B19 VL with T7A, L9P, T28N, K44R, F94C, W101Y
notes: murine IgG
B23: SCT-Fa119 (antibody, V domains shown)
VH: B20 VH with L20V, A66G
VL: B19 VL with T28S
notes: murine IgG
B24: SCT-Fa150 (antibody, V domains shown)
VH: B22 VH with L11V, T28S, S105T
VL: B19 VL with L9P, T28N, K44R, F94C, W101Y
notes: murine IgG

Biological target: T1, Human TIM-3 Human Fc tagged protein (human, fluorescently labeled with HiLyte Fluor 555 (sites not given))
T1 construct: Bought construct; also called TIM-3 protein tagged with human Fc; ACROBiosystems catalog no: TM3-H5258
Test: capture slide probed with labeled TIM-3-Fc;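 also: IgG from single CD138-enriched plasma cells, isolated from lymphocytes, immobilized on a derivatized glass slide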

Binder	binding result
B1	binds
B2	binds
B3	binds
B4	binds
B5	binds
B6	binds
B7	binds
B8	binds
B9	binds
B10	binds
B11	binds
B12	binds
B13	binds
B14	binds
B15	binds
B16	binds
B17	binds
B18	binds
B19	binds
B20	binds
B21	binds
B22	binds
B23	binds
B24	binds
